Data: publication PMC4928834
Values belong to the substance of their own block, whether it stands above or below them.

Tests used:
[1] = target: soluble part of FloA (flotillin A) with 6xHis tag (B. subtilis) (UniProt P54466); assay: SEC; FloA6His after Ni-NTA on HiLoad 26/600 Superdex 200 pg, 1.5 ml/min, 20 mM HEPES, 200 mM NaCl, 20 mM MgCl2, 20 mM KCl, pH 7.5
P54466 = assay: SEC; HMW fraction of FloA-Strep run again on gel filtration undiluted, 3 fold and 5 fold diluted; peak areas measured
[2] = target: soluble part of FloA (flotillin A) with Strep-tag (B. subtilis) (UniProt P54466); assay: SEC; FloAstrep after Strep-Tactin on Superose 6 10/300 GL, 0.5 ml/min, 100 mM Tris-Cl, 150 mM NaCl, pH 7.5

- stoichiometry N [1]: 2
Substance: soluble part of FloA (flotillin A) with 6xHis tag (from UniProt P54466 56-331) (domain or fragment)

Substance: soluble part of FloA (flotillin A) with Strep-tag
- percent of the protein in the HMW fraction (5-fold diluted) (P54466): 82% are in the HMW fraction and 12% in the LMW peak
- percent of the protein in the HMW fraction (undiluted or 3-fold diluted) (P54466): about 90% of the proteins are in the HMW fraction
- percent of the protein in the LMW peak (5-fold diluted) (P54466): 82% are in the HMW fraction and 12% in the LMW peak

- stoichiometry N [2]: 4
Substance: soluble part of FloA (flotillin A) with Strep-tag (from UniProt P54466 56-331) (domain or fragment)
